Data: the domain aggregation screens of Martell et al. (2025)

Experiment: soluble fraction after stress (log2 fold change); higher = more stays soluble; pooled small domains, quantitative proteomics
Conditions: stress: pH 4
Outline: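 Small protein domains from pooled custom libraries were exposed to pH 4, then quantified with high-throughput quantitative proteomics. The fold change in how much of each domain remains soluble is read as aggregation propensity. It is given as log2, with higher values meaning more stayed soluble.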

| Sequence | soluble fraction (log2) |
| --- | --- |
| HMARNHYETLGVGRTATGDEIRKAYRSEAQKHHPDRGGDAERMQSLNEARDTLLDDQARAAYDQELDL | -0.0435 |
| HMARPLLSPREQDVLALIARGFSYSEVARLQAVTVHTIRTHIRNLYAKLSVHSKTEAVFEATRMGLLP | -0.569 |
| HMARRKRDIDSDINVKVFEHWLDNLDSASRESFSAFAEETFSPIQVYLYAKFLGYESSIIAVDHWVAVAYP | -0.574 |
| HMARSVAEFVERGRSGGSLERPKLQRMLEYIQDRPVDFVIVHKIDRLARNRADDAAITKTIRGAGAYLVST | -0.103 |
| HMARTGSEELVGALATVREPLAPWGQVFVQGALWRARSADGGPVDAGQQVVVRAVEGLTLVVEPRD | -0.166 |
| HMARYSMLEEQLLQLINKHGTMSTPKLVEATGAPRSTVTYQLRKLLESGTIERTQPARSPKQSYRIKS | 0.0957 |
| HMASATGVVTAASLNVRSGAGTNYSVVNTLAKGTKVTVLNTADGWYEIEATVNNEKITGYVSATYIAMD | -0.0486 |
| HMASLSRRELEVLELLALRLTVKEVAERLVISELTAKRHTSNIYQKLGVNRRRDALAAAQARGLLGAR | -1.09 |
| HMASRSQTEIMHLLSSGLPKHELVTALQSLLGISKPTAYKYLSQDVSIAYDHMVKILEYPPFQRVLYQ | -0.799 |
| HMASSVKAPLPGVILDIKVKVGDTIKNGDTVVILEAMKMENNIHSDKDGVVKSIEVNKGDSVLEGATLLTI | -0.822 |
| HMASVDDILDRFKQAAKVTTDADLAKVLGLSRQSIAAARLRAKIPASWFPKMSSLFNISTEWLYRG | 0.011 |
| HMASVRPVAPPDPKTHTRLTYRIRRGDTLERIGRRYRVSIAEIQAWNTLRDPGDILAGQRLVIWIPTS | 0.117 |
| HMATAPQIRAIYALGSKLGINQNSREDNLHQLVYSITGKESIKGLTNYEAARVQSELANMERK | 0.396 |
| HMATEPLQPRVEVLGSTLATTNGARIVGVYDMSGREVSATQLSKGVYIVKVTNGSVTATQKVFI | 0.254 |
| HMATETMGMIIRRLRREHGLTQEELAASIGVTAQAVSKWEKDLGMPDISQIVPLAGAFNVRTDVLFGLE | -0.672 |
| HMATEWLSSKEAAQRLGVSAATLYAYVSRGLLRSEGSSGQRERRYRADDVAQLRRRREVGRKAESIAASTL | 0.142 |
| HMATHWHITPNPNNGKFLISGLMQDDSFHLMDASGQWLRQLRTVNQELDLDLQPGVYFLKDNSGSVMKFVV | -1.15 |
| HMATIADILAEHKDKEGPLLPVLHDVQKMFGHVSEEAMREIAQALNLTRAEVYGVVSFYHDFRKEVE | -1.19 |
| HMATIIGSIGIVTQKVGLTGVPGRVYVNNESWAAISANGKEIENDTQVIVVKIDGATLIIEKKG | -0.262 |
| HMATKEQIKRIYGLGAGLGIVGKDKDDMLHELIFSITGKDSVKQLDDSEFKAVQAELINRMKLA | -0.111 |
| HMATLAVPNLMRLSQGEAMALIRLSGLSIGNVSIDSSMGSPRVIRQEPQASGGMLVLTQGDQVHLWLEGP | -2.08 |
| HMATLQLPVPKITLYPGELIRSDHLTDQRFNARALYHSAVYKSREDIVGKVARRTLLPGQPIPVNALR | 0.194 |
| HMATPKRGFRKQLAPLVQSGTITREEAGELSRSSGDATALRTKIGELMKAGKLTRKEAGELYSDAFPENA | 0.0387 |
| HMATPYISMAGIGKSFGPVHALKSVNLTVYPGEIHALLGENGAGKSTLMKVLSGIHEPTKGTITINNIN | ≥ 0.43 |
| HMATRAEQMAKTHQAILDTARELFLRNGYDATSTRDIANAIGITQPALYHHFKDKEVIFLAVI | 0.101 |
| HMATSLTEQEKLIFGLLKKQSPIELSSLKEQAGLSNKKWDKAIKGLSTQQLAKVTKTENGLFVHLLQ | 0.12 |

| Sequence | soluble fraction (log2) |
| --- | --- |
| HMATTAGIEKYLGSGLIKGIGPIYAKKIVRKFKEDTIRIIDEEPDRLLEVEGIGQKRLEIIKQAWQQQKE | -0.826 |
| HMATVHVDGIQYDFSSPEQAKEFAYKWAKKHNLTWEVHGETIHIK | -0.0405 |
| HMATYNEVLKRLIEERKRLGLSQQEMARLVHITQSNYSKVEKGLHRLSYEELKYLSKANVDIFYILT | 0.0845 |
| HMAVANEAIANINMKEVKQAIHNLPEIFKNPFLLYFDGYKYHEIAEMLDEPLGTIKSRIHFARKLLKSHI | 0.22 |
| HMAVDVNKATAAELDSIKGIGPAISAKILEEKKKGGNFKDWNDLVTRVSGVGEANAAKFSSEGLTVGGAS | 0.235 |
| HMAVELPLETTLDIVRKYARNQEVDRRAERVEAVSAEALQTLAPRGTKLASEIVEQAKTQVLEELA | -0.0679 |
| HMAVKYTKDDFLYTEKPYEAIYDYKNDPFMHNLKIEQMAQQAAEVGVKTFKGLYKNYVKMREMQRGANV | 0.0966 |
| HMAVNSALVQRNWLIGYRIAEEELQGDNRAEYGASIIKKLAKELTAEYGKGYTKTNLYHFYSFYKT | -0.494 |
| HMAVNVNGIHLSSQQHEALVSIWRTGRMPEPHAGQKPWLWIQALRRRGLVSGNALRLTDKGRHIVQLLQ | 0.226 |
| HMAVPAALVQAWLELSRRMVAGTQDVGERFAEEARKMHYGETEDRGIRGQATLTEVRDLLDEGIEVLPLLL | -0.725 |
| HMAVPLVRGTVTSSVGTVLLLSVGERDFFLSEGEEKDGVLLQSLSEKSAVVVVSGRAYTLSL | -0.435 |
| HMAVRLADMAAEKIRKMIIENKFDAGEPLSEMRLAEMFNVSRTPIREAIAILEQEGLLTTVHGKGAFIS | -0.637 |
| HMAVSDAAEEYGKAGTPLVILAGKEYGSGSSRDWAAKGPYLQGVRAVLAESYERIHRSNLVGMGIVPLTYK | 0.109 |
| HMAVSDPTAGGIKALMYPNPAQDRLSVALDIPAGLDKQAQMTVTDMMGRVVTQQQVTLNDGFQVFEL | 0.209 |
| HMAVSSYSVKRYIRNMIQAEDPSAPFSDEALRLALLAHGIAVSRRVVTKYRMAMDIPSSSQRRKR | -0.12 |
| HMAVSTFGRITASSLNVRSGPSTDHEKVGSLAAGRVVELLEESDGWYRIENGYISTEYVTIVDPSQ | -1.33 |
| HMAVTEVKTTAVVNMRSSDSEKADKLGKAQIGDTFRVLEQRANGWTKLTDGTQEFFIKSEYLEAIA | 0.0485 |
| HMAVVAPLAGSVARVLVADGDEIEAGQVLLVLEAMKMETEITAPKAGKVGAILVGKGDSVQGGQGLR | -0.249 |
| HMAYLTGFHAIEELIRAGKAKGPLLVANAGPRARTIMSLATDNKIRIDRLGEHELNRLAPGNRGIALYVE | ≥ 0.43 |
| HMDAAYVYVIGTRVNQRAGPSTSNAVMGVLSEGTRVETLRDEGQWTQIRSNFGTGWMSSSFLSSVAP | 0.124 |
| HMDADRILHKTLKPRELEIYQLIKAYLEEHSQIANAKVQEISGLSEATTRRYLNIFVEFGLLKTS | -0.164 |
| HMDADTVGQIRVVKQILDDGRLIVVDASGNPVLVRRSSALSLTAISQGDRIIVDPSVRLAIELLPNE | 0.148 |
| HMDAEELNSKAKDEFTWLEDDESETNLEYRKMVSSEDMAIVAKVAPALAAKLKYQLAHAATNMV | -0.529 |
| HMDAEVEHLFRIIAELKEKNVAIIYISHKMDEIFRISDDITVYRDGEYIATDRAENLNVDKVIQLMVGREV | -0.538 |
| HMDAEWRTLTLAPEQHQQRLDRALADSLPEFSRSYVQQLIDTGMVRVNGVLAAKSAQRVKALDQVQVELR | -0.186 |
| HMDAGIVVPDTYNKPLAEAVASLEGEGFRTEKKEGYSDTVAKGNVMSQNPEAGTNAERGSTVTIVISQGPQ | 0.22 |

| Sequence | soluble fraction (log2) |
| --- | --- |
| HMDAINYEDFQLLIKQRGSFKVAFEDIMFSTKVAIEKKEDFYDFVTKLIDNGFNNMAYNYLEGFQD | -2.34 |
| HMDAISYTQFMEEAKQGRINKVEVQGRTLMVTPTDGKAYSLTSPGDLWMTTDLMKYGVNVYGAE | -0.527 |
| HMDALKAVYQWVTRTMMKNQTGVMQTLPNRDLIELNTQITAQRLMQAGVDPTTLKNANQVENAVNIIESR | -0.193 |
| HMDAMGAVGIARAFISAGERGGDISDGLEHMHGKLLRLSSLMYTRSGKKMAARRHELLSSFVQALEEEIK | -0.0591 |
| HMDAMQAFPNPTVDEIHFVTPTTGRVYNAHGQLVMVLKNAQLVNVRQWSAGQYVIVREDGYAVRWIK | -0.43 |
| HMDAPQRVTYLLPHSRGEVVSWLHRQGEVVAQEYEAEGVRVVVDLRYAQIRQAAKQFDVLPAEG | -0.656 |
| HMDAPRFAAGDAVRVAGLVSKPQHNGRAGSVLSYDPVSLRYIVKVDGEDEPLKLKPENVLMPA | 0.0764 |
| HMDAQLRVPDLTPYNYSELKENTSLYEGFTIEVVEERSTGDYAAGTVLDQDPKADTLIQDGDSTVIKLVIA | -0.115 |
| HMDASFTYSLETHPAGVLVRVDGLEYETPFSILLPQGVHRLEVAGEERFFYLSETTHQFLEID | -0.714 |
| HMDATGDPIADRILQALQLGELTRTQVNNVFQRHLAAARISQALNFLRSLKRADMRMEETAGRSGEVWFAI | -0.254 |
| HMDAVKKKVQSTNTLLDVLKQMLPQTSSNTLRKMLTNQRITVDGETIHRAKHTVEKDQTVEIHPKP | ≥ 0.43 |
| HMDAVSYTQFMQDAKAGRIKKVIVHQSGILDVTTTEGRRFNLTSPGDLWMVGDLVKDGVDVVGAP | 0.139 |
| HMDAVTYAKGSSGETVREIQQLLLDWGYYSGEVDGIFGSRTEDAVEYFQRKNGLTVDGKVGPATLEALGIS | -0.349 |
| HMDAYMIGHNIAKWRKEKGMTQDQLAEHLSVSGQAVSKWENGASLPDIAILPKLAEIFDVTMDQLFSR | 0.166 |
| HMDDAIAEKTGGAVSSVNQRQAILDHIREAYGIELESLRSTDIERYLDDPEIPEPVKDILRDRLRGAK | 0.0292 |
| HMDDDAELLLKKLSAAGGELPFHDRSEPAEIEAAFGLSKSAFKRALGKLLKAGKVVKTQQGIQLK | 0.266 |
| HMDDDIKNALDVLPEQYRMTVYYADVEGLAYKEIGAIMNTPIGTVMSRIHRGRSQLRVLLAAVAADR | -0.0958 |
| HMDDFITLVIHTPAHAQNLRNILESHGMEVRLEDFVSFKSPVAVAQRVKIRPKDLPLALKIIESGE | 0.126 |
| HMDDFVEIDGKKYEIDMSFDNILRLFDLLKDKSLNDVTKIETGLIMLIDDSLDDYDTEEKADIFVQIF | 0.22 |
| HMDDGALQIRLGPQALQQRLDKLGYSLNKEDLDLVYQYFLHSADSKGAVYDQELRELMGEAGVE | -0.607 |
| HMDDIHTFVYETETPFDPQKLDRYIGSLTAVYGQDMLRYKGILYFAGVDRRVVFQGVHMLAV | -0.353 |
| HMDDILAYEIEDKEDLENLSLGKSIGINLNKLIKPTLNSFDNSLLFLSKKGNIISYGKLNGDLFKPKKVL | -0.454 |
| HMDDINVSNSKNIVPNVTGHTGSKAIPVLENLGLDVQYSGFGKVTNQSIPAGTRFKKGETIYLMLE | -0.0218 |
| HMDDIVFPNPTKNQINVSIDGLKNIYNLSGKLLISTNDKIIDVSILKAGVYFINTNEQFYKFVK | -0.797 |
